Assay: melting temperature; melt of duplexes
Conditions: sodium 0.0675 M; strand 1 µM

Substance | Tm [°C]
CGACGTGCATCATGTGCTG+CAGCACATCACGCACGTCG ((((((((.(.((((((((+)))))))).).)))))))) | 46.6
CGACGTGCATCATGTGCTG+CAGCACATCGGGCACGTCG ((((((((...((((((((+))))))))...)))))))) | 47.9
CGACGTGCATCATGTGCTG+CAGCACATCTGGCACGTCG ((((((((...((((((((+))))))))...)))))))) | 47.5
CGACGTGCATCATGTGCTG+CAGCACATGCGGCACGTCG ((((((((..(((((((((+)))))))))..)))))))) | 52.7
CGACGTGCATCATGTGCTG+CAGCACATGCTGCACGTCG (((((((((.(((((((((+))))))))).))))))))) | 55.8
CGACGTGCATCATGTGCTG+CAGCACATGTAGCACGTCG ((((((((..(((((((((+)))))))))..)))))))) | 55.3
CGACGTGCATCATGTGCTG+CAGCACATTAAGCACGTCG ((((((((.(.((((((((+)))))))).).)))))))) | 48.6
CGACGTGCATCATGTGCTG+CAGCACATTACGCACGTCG ((((((((.(.((((((((+)))))))).).)))))))) | 48.1
CGACGTGCATCATGTGCTG+CAGCACATTCTGCACGTCG (((((((((..((((((((+))))))))..))))))))) | 50.5
CGACGTGCATCATGTGCTG+CAGCACATTGAGCACGTCG ((((((((...((((((((+))))))))...)))))))) | 50.2
CGACGTGCATCATGTGCTG+CAGCACATTGCGCACGTCG ((((((((...((((((((+))))))))...)))))))) | 46.9
CGACGTGCATCATGTGCTG+CAGCACATTTCGCACGTCG ((((((((...((((((((+))))))))...)))))))) | 46.9
CGACGTGCATCATGTGCTG+CAGCACATTTGGCACGTCG ((((((((...((((((((+))))))))...)))))))) | 48.2
CGACGTGCATGATGTGCTG+CAGCACATAAAGCACGTCG ((((((((.(.((((((((+)))))))).).)))))))) | 50.7
CGACGTGCATGATGTGCTG+CAGCACATAACGCACGTCG ((((((((.(.((((((((+)))))))).).)))))))) | 49.3
CGACGTGCATGATGTGCTG+CAGCACATAAGGCACGTCG ((((((((.(.((((((((+)))))))).).)))))))) | 52.8
CGACGTGCATGATGTGCTG+CAGCACATACAGCACGTCG ((((((((...((((((((+))))))))...)))))))) | 49.5
CGACGTGCATGATGTGCTG+CAGCACATACCGCACGTCG ((((((((...((((((((+))))))))...)))))))) | 47.5

Substance | Tm [°C]
CGACGTGCATGATGTGCTG+CAGCACATAGGGCACGTCG ((((((((...((((((((+))))))))...)))))))) | 50.1
CGACGTGCATGATGTGCTG+CAGCACATCATGCACGTCG (((((((((((((((((((+))))))))))))))))))) | 63.6
CGACGTGCATGATGTGCTG+CAGCACATCCAGCACGTCG ((((((((..(((((((((+)))))))))..)))))))) | 53.6
CGACGTGCATGATGTGCTG+CAGCACATCCGGCACGTCG ((((((((..(((((((((+)))))))))..)))))))) | 54.4
CGACGTGCATGATGTGCTG+CAGCACATCTCGCACGTCG ((((((((..(((((((((+)))))))))..)))))))) | 53.9
CGACGTGCATGATGTGCTG+CAGCACATCTGGCACGTCG ((((((((..(((((((((+)))))))))..)))))))) | 56.1
CGACGTGCATGATGTGCTG+CAGCACATGAAGCACGTCG ((((((((.(.((((((((+)))))))).).)))))))) | 50.3
CGACGTGCATGATGTGCTG+CAGCACATGCAGCACGTCG ((((((((...((((((((+))))))))...)))))))) | 50.4
CGACGTGCATGATGTGCTG+CAGCACATGGAGCACGTCG ((((((((...((((((((+))))))))...)))))))) | 50.1
CGACGTGCATGATGTGCTG+CAGCACATGGCGCACGTCG ((((((((...((((((((+))))))))...)))))))) | 48.1
CGACGTGCATGATGTGCTG+CAGCACATGTAGCACGTCG ((((((((...((((((((+))))))))...)))))))) | 49.9
CGACGTGCATGATGTGCTG+CAGCACATGTCGCACGTCG ((((((((...((((((((+))))))))...)))))))) | 48.8
CGACGTGCATGATGTGCTG+CAGCACATTATGCACGTCG ((((((((((.((((((((+)))))))).)))))))))) | 57.3
CGACGTGCATGATGTGCTG+CAGCACATTCTGCACGTCG (((((((((..((((((((+))))))))..))))))))) | 52.9
CGACGTGCATGATGTGCTG+CAGCACATTGAGCACGTCG ((((((((...((((((((+))))))))...)))))))) | 50.7
CGACGTGCATGATGTGCTG+CAGCACATTTGGCACGTCG ((((((((...((((((((+))))))))...)))))))) | 50.3
CGACGTGCATTATGTGCTG+CAGCACATAAAGCACGTCG ((((((((.((((((((((+)))))))))).)))))))) | 54.6
CGACGTGCATTATGTGCTG+CAGCACATAAGGCACGTCG ((((((((.((((((((((+)))))))))).)))))))) | 56.7
